Test results reported in US20080103086A1, “METHODS FOR THE TREATMENT OF DISEASES ASSOCIATED WITH THE SECRETION OF HMGB1” (priority 2006, published 2008).
Where a chain is given by its changes, count along the chain named.

Legend:
HMGB1 secretion = assay: Inhibition of HMGB1 secretion by Protein Kinase C inhibitor in LPS-treated RAW 264.7 cells (Western blot of supernatants); type: cell-based, Murine; conditions: 200 ng/mL LPS combined with inhibitor, 16 h, Go 6983 0.1 to 10 μM
Procedure: RAW 264.7 cells were treated with 200 ng/mL of LPS alone or combined with Gö 6983 (PKC inhibitor) at the indicated concentrations (μM) for 16 h. SB203580 (p38 inhibitor), PD098059 (ERK1/2 inhibitor), Bay 11-7082 (NF-κB inhibitor) were used for comparison. The supernatants were harvested and separated with 12% SDS-PAGE and Western blot was performed to observe the level of HMGB1.
To analyze the secretion of HMGB1 in the supernatants, culture media were replaced with serum-free OPTI-MEM (Gibco BRL) medium and concentrated with Amicon Centricon filtration (Millipore) after removing cell debris, and Western blot analysis was performed. The cytoplasmic and nuclear fractions from 5×10^6 cells were separated using a digitonin-based method (Bird, C. H. et al, Mol Cell Biol 21:5396-5407 (2001)) to observe the levels of HMGB1 in each fraction. The cells were lysed using 1% Nonidet P-40 buffer containing a protease inhibitor cocktail (Sigma), and the protein concentrations were measured by Bradford assay (Biorad) for the analysis of whole cell lysates (WCLs). The protein samples underwent 12% SDS-PAGE and were transferred to a nitrocellulose membrane. Western blot analysis was performed using rabbit anti-HMGB1 (BD Pharmingen) and HRP-labeled goat anti-rabbit Ig as primary and secondary antibodies, respectively.
To observe the inhibition of HMGB1 secretion by PKC inhibitor, RAW 264.7 cells were treated with 200 ng/mL of LPS alone or combined with Gö 6983 (Calbiochem), a conventional PKC (α, β, and γ) inhibitor including PKCδ and PKCζ, at the indicated concentrations for 16 h. Other inhibitors of SB203580 (p38 inhibitor, Calbiochem), PD098059 (ERK1/2 inhibitor, Calbiochem), Bay 11-7082 (NF-κB inhibitor, Calbiochem) were included. The supernatants were harvested and separated with 12% SDS-PAGE and Western blot was performed to observe the level of HMGB1.

[1] = target: six His-tagged HMGB1 NLS1/2A, not tagged with GFP (UniProt P09429)
[2] = target: six His-tagged wild type HMGB1 (UniProt P09429)
[3] = target: T1, GST-KAP-α1 fusion protein (human, UniProt P52294 1-538); assay: GST pull-down with GST-KAP-α1 on glutathione-Sepharose beads, anti-His blot
T1 construct: Produced in E. coli BL21, immobilized on glutathione-Sepharose 4B beads; the primers start at the ATG of the coding region; not shown: glutathione S-transferase (GST) tag encoded by vector pGEX-4T-1 (Pharmacia)
Procedure: Direct binding of recombinant HMGB1 protein to KAP-α1 was tested to exclude the possibility that other HMGB1-interacting proteins present in cell lysates could have a role in binding. Purified six His-tagged wild type HMGB1 protein and boxes A (aa 1-87) and B (aa 88-162) proteins, which were identified at expected size by Coomassie blue staining (FIG. 4B, left), were purified from E. coli BL21. Same molar amounts of all wild and truncated forms of HMGB1 were added to GST-KAP-α1, and GST pull-down assay was performed.

Flag-tagged KAP-α1 [4] = target: T2, Flag-tagged KAP-α1 (human, UniProt P52294 1-538); assay: co-immunoprecipitation from co-transfected RAW 264.7 cells, Western blot (summed up in Example 7)
T2 construct: Expressed in co-transfected RAW 264.7 cells; used in co-immunoprecipitation; also called FLAG-KAP-α1; not shown: Flag tag of vector pCMV-Tag2 (Stratagene)
Procedure: (§1) To observe the binding of KAP protein to each mutant HMGB1 in the cells, Flag-tagged KAP-α1 and each mutant HMGB1-GFP plasmid were co-transfected into RAW 264.7 cells. Cell homogenates of transfected RAW 264.7 cells were harvested and incubated with mouse anti-Flag (M2, Sigma) and mouse anti-GFP (Santa Cruz) at 4° C. overnight. Immune complexes were collected and the membranes were blotted with anti-Flag and anti-GFP, respectively. The reciprocal experiment was also performed. GST was used as a negative control. And to test the direct binding of HMGB1 to KAP-α1, GST pull-down assay was performed as described above.
(§2) To observe the effect of phosphorylation in both NLS regions of HMGB1 on the binding to KAP-α1 and on the subcellular localization of HMGB1 in the transfected cells, a number of site-directed mutations in six serines of NLS1 and NLS2 were generated using a HMGB1-GFP fusion construct plasmid (FIG. 5A). Serines 35, 39, 42, 46, 53 within or close to NLS1 and serine 181 at NLS2 were alternatively or totally mutated into alanine or glutamic acid. Substitution with alanine and glutamic acid simulated unphosphorylated and a phosphorylated states, respectively. RAW 264.7 cells were co-transfected with a Flag-tagged KAP-α1 plasmid and each mutant HMGB1-GFP plasmid, and immunoprecipitates using anti-GFP (FIG. 5B) or anti-Flag (FIG. 5C) were analyzed with anti-Flag for KAP-α1 or anti-GFP for HMGB1.

Flag-tagged KAP-α1 [5] = target: T2, Flag-tagged KAP-α1; assay: co-immunoprecipitation from co-transfected RAW 264.7 cells (anti-GFP and anti-Flag), Western blot
Procedure: as §1, §2

T2 sequence (P52294 whole entry): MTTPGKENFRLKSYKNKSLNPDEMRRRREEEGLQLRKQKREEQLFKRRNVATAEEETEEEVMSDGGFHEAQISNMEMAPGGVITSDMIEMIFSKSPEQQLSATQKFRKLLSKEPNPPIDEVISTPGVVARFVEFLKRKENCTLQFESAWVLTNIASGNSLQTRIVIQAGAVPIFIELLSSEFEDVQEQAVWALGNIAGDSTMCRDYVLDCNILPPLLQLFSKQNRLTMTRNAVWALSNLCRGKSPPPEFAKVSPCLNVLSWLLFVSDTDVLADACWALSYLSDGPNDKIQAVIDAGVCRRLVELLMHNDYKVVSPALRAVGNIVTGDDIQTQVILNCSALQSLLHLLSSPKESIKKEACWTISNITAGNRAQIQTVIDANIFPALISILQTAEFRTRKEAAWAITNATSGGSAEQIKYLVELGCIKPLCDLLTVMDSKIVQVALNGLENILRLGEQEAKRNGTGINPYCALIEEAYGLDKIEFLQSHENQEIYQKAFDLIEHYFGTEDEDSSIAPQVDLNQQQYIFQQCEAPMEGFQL
T1 sequence (P52294 whole entry, the tested form may be a part): as the sequence (P52294 whole entry) above

## C[S+]([O-])c1ccc(-c2nc(-c3ccncc3)c(-c3ccc(F)cc3)[nH]2)cc1 (stereo not shown) [SB203580]
HMGB1 secretion
  levels of HMGB1 in the culture supernatants (HMGB1 secretion): no change of HMGB1 secretion

## protein kinase C (PKC) protein (Upstate)
[1]
  in vitro protein kinase assay ([γ-32P]ATP, autoradiography): showed little or no phosphorylation compared to the WT HMGB1
[2]
  in vitro protein kinase assay ([γ-32P]ATP, autoradiography): PKC phosphorylated WT HMGB1

## Cc1ccc(S(=O)(=O)/C=C/C#N)cc1 [Bay 11-7082]
HMGB1 secretion
  levels of HMGB1 in the culture supernatants (HMGB1 secretion): decreased in a concentration-dependent manner

## Cdc2 kinase (New England BioLabs)
[2]
  in vitro protein kinase assay ([γ-32P]ATP, autoradiography): CK II and cdc2 showed no phosphorylation of HMGB1

## COc1ccc2c(c1)c(C1=C(c3c[nH]c4ccccc34)C(=O)NC1=O)cn2CCCN(C)C [Go 6983, 2-[1-(3-dimethylaminopropyl)-5-methoxyindol-3-yl]-3-(1H-indol-3-yl) Maleimide]
HMGB1 secretion
  levels of HMGB1 in the culture supernatants (HMGB1 secretion): decreased to undetectable level
HMGB1 secretion; listed as Go6983
  levels of HMGB1 in the culture supernatants (HMGB1 secretion): the secretion of HMGB1 was inhibited

## casein kinase II (CK II) (New England BioLabs)
[2]
  in vitro protein kinase assay ([γ-32P]ATP, autoradiography): CK II and cdc2 showed no phosphorylation of HMGB1

## COc1cccc(-c2cc(=O)c3ccccc3o2)c1N [PD098059]
HMGB1 secretion
  levels of HMGB1 in the culture supernatants (HMGB1 secretion): no change of HMGB1 secretion

B1: six His-tagged HMGB1 box B (aa 88-162) (other, human, UniProt P09429 88-162, looked up, not shown: small tags and cut ends)
chain: KFKDPNAPKRPPSAFFLFCSEYRPKIKGEHPGLSIGDVAKKLGEMWNNTAADDKQPYEKKAAKLKEKYEKDIAAY
notes: range 88-162
[3]
  binding result: no binding

B2: six His-tagged HMGB1 box A (aa 1-87) (other, human, UniProt P09429 1-87, looked up)
chain: MGKGDPKKPRGKMSSYAFFVQTCREEHKKKHPDASVNFSEFSKKCSERWKTMSAKEKGKFEDMAKADKARYEREMKTYIPPKGETKK
notes: range 1-87; Includes NLS1 (aa 28-44); Purified from E. coli BL21; also called boxes A (aa 1-87); not shown: 6×His tag and vector-encoded residues of pRSETB (Invitrogen)
[3]
  binding result: no binding

B3: HMGB1 NLS1/2A (HMGB1-GFP mutant) (other, human, UniProt P09429 1-215, looked up)
chain: MGKGDPKKPRGKMSSYAFFVQTCREEHKKKHPDAAVNFAEFAKKCAERWKTMAAKEKGKFEDMAKADKARYEREMKTYIPPKGETKKKFKDPNAPKRPPSAFFLFCSEYRPKIKGEHPGLSIGDVAKKLGEMWNNTAADDKQPYEKKAAKLKEKYEKDIAAYRAKGKPDAAKKGVVKAEKAKKKKEEEEDEEDEEDEEEEEDEEDEDEEEDDDDE
notes: not shown: EGFP of pEGFP-N1 and linker
Flag-tagged KAP-α1 [4]
  interaction relative to wild-type: ≥ 50 % of wild-type

B4: HMGB1 NLS2A (HMGB1-GFP mutant) (other, human, UniProt P09429 1-215, looked up)
chain: B3 chain with A35S, A39S, A42S, A46S, A53S
notes: as for B3
Flag-tagged KAP-α1 [4]
  interaction relative to wild-type: ≥ 50 % of wild-type

B5: HMGB1 NLS1E (HMGB1-GFP mutant) (other, human, UniProt P09429 1-215, looked up)
chain: B3 chain with A35E, A39E, A42E, A46E, A53E, A181S
notes: as for B3
Flag-tagged KAP-α1 [5]
  interaction relative to wild-type: ~50 % of wild-type
Flag-tagged KAP-α1 [4]
  interaction relative to wild-type: ≥ 50 % of wild-type

B6: HMGB1 NLS2E (HMGB1-GFP mutant) (other, human, UniProt P09429 1-215, looked up)
chain: B3 chain with A35S, A39S, A42S, A46S, A53S, A181E
notes: as for B3
Flag-tagged KAP-α1 [5]
  interaction relative to wild-type: ~50 % of wild-type
Flag-tagged KAP-α1 [4]
  interaction relative to wild-type: ≥ 50 % of wild-type

B7: HMGB1 NLS1A (HMGB1-GFP mutant) (other, human, UniProt P09429 1-215, looked up)
chain: B3 chain with A181S
notes: as for B3
Flag-tagged KAP-α1 [4]
  interaction relative to wild-type: ≥ 50 % of wild-type

B8: HMGB1 NLS1/2E (HMGB1-GFP mutant) (other, human, UniProt P09429 1-215, looked up)
chain: B3 chain with A35E, A39E, A42E, A46E, A53E, A181E
notes: as for B3
Flag-tagged KAP-α1 [5]
  binding result: no binding
